Assays:
PAR-2 = target: T1, PAR-2 (Homo sapiens, UniProt P55085); assay: Calcium influx in PAR-2-expressing insect cells; assay type: cell-based; conditions: AST 2 units/mL; trypsin, thrombin 0.1 to 10 units/mL; SFLLRNamide, SLIGRL 10 to 100 μM
T1 construct: expressed in transfected cells; host or cells: Sf9 insect cells infected with recombinant baculovirus VL-PAR (pVL1393)
T1 sequence (P55085 26-397): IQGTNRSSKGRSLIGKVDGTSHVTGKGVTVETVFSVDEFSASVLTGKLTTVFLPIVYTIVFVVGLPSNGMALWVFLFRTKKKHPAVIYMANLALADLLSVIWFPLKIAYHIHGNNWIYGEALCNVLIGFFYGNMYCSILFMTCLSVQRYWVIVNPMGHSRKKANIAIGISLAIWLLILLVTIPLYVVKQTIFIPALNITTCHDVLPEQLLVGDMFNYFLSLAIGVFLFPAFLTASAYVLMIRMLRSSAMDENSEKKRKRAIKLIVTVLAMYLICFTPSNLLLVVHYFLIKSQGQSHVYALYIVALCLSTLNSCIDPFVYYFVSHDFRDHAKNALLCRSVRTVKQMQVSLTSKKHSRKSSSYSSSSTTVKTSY
Procedure: The above-obtained recombinant baculovirus VL-PAR for expressing the PAR was used to infect 1.0×10^7 Sf9 cells sowed on a 75 cm^2 flask at an MOI=2, and was then left and stationally cultured at 27° C. for 40 hours. After the culture, the infected cells were recovered and then subjected to a calcium influx experiment to-confirm the function of the PAR.
The recovered infected cells (about 5×10^6 cells) were once washed with HEPES-Tyrode buffer solution-Ca^2+ (−) pH 7.4, and then suspended in 5 mL of HEPES-Tyrode buffer solution (containing Fura2-AM, 1 μg/mL) to load the Fura2-AM on the cells at 27° C. for 30 minutes. The suspension was centrifuged at 800 rpm at room temperature for 5 minutes to recover the cells. The cells were twice washed with HEPES-Tyrode buffer solution-Ca^2+ (−) pH 7.4 and then resuspended in 5 mL of HEPES-Tyrode buffer solution-Ca^2+ (−) pH 7.4. The cell suspension was mixed with 5 μL of 1M CaCl2 to give a final concentration of 1 mM CaCl2, and then incubated in a shaded state at room temperature for 5 minutes. The prepared Fura2-AM-loaded infected cells were dispensed into a 96 well plate in a volume of 100 μL/well, further subjected to the dispensation of HEPES-Tyrode buffer solution-C^2+ (+) pH 7.4 in a volume of 80 μL/well, and then assayed with a Fluorescence Drug Screening System (made by Hamamatsu Photonics Co.). Namely, [intensity of 500 nm fluorescent light due to 340 nm exciting light]/[intensity of 500 nm fluorescent light due to 380 nm exciting light] (reflecting the concentration of calcium in the cells) was assayed.

EGFR = assay: Tyrosine phosphorylation of EGFR in NCI-H292 cells; assay type: cell-based, human; conditions: HAST 0.3 U/mL, 30 to 240 minutes
Procedure: NCI-H292 cells (purchased from ATCC) were suspended in 10% FCS-containing RPMI-1640 (produced by Gibco Corp.) and then sowed on a 12 well plate (made by Falcon Corp.) in a density of 6.0×10^4 cells/cm^2. The cells were cultured for 72 hours, subjected to the replacement of the culture medium by 0.1% BSA-containing RPMI-1640, and further cultured for 24 hours.
On the day of the treatment, the culture solution of the wells was replaced by RPMI-1640 (containing 0.1% BSA) containing HAST (0.3 U/mL), EGF (1 μg/mL), and the treatments were carried out for 30, 60, 120, 180, 240 minutes, respectively.
The cells treated with the HAST or the EGF for the prescribed time were twice washed with ice-cooled PBS, mixed with 500 μL of an ice-cooled Lysis buffer solution (50 mM Tris-HCl, pH 7.4, 5 mM EDTA, 1% Triton X-100 (Sigma), 150 mM NaCl, 10% glycerol, 1% Protease inhibitor Cocktail (Sigma), 1% Phosphatase Inhibitor Cocktail (Sigma)), allowed to stand on ice for 15 minutes, and then recovered in a micro tube. The recovered product in the micro tube was centrifuged at 15,000 rpm at 4° C. for 10 minutes, and the supernatant was recovered as a sample. The protein concentration of the sample was assayed with BioRad Protein Assay (produced by Bio Rad Corp.), and properly diluted with the Lysis buffer solution so that the protein concentrations in all the samples become 1.48 mg/mL. […]

Substance: HAST: human airway-specific trypsin-like enzyme; propeptide moiety bound to trypsin-like protein moiety via a disulfide bond
- Ca2+ influx (PAR-2): observed
- tyrosine phosphorylation of EGFR (EGFR): activated EGFR
